Measured values published in publication PMC11376383, “Transcription factor ZmEREB97 regulates nitrate uptake in maize (Zea mays) roots”.

B1: Motif 1 probe (WT) (dsDNA)
DNA 1: CTCGGTCCACGCCGCCCGTCGGGGTTCG
DNA 2: CGAACCCCGACGGGCGGCGTGGACCGAG
B2: ZmNRT1.1B promoter probe (dsDNA)
DNA 1: AACAGGAGCACCCGCCGCCATGCTGCTCGCT
DNA 2: AGCGAGCAGCATGGCGGCGGGTGCTCCTGTT
B3: ZmNRT1.1A promoter probe (dsDNA)
DNA 1: ATATATAGCGGGGCGCCGCCCACCCGGCGGAGC
DNA 2: GCTCCGCCGGGTGGGCGGCGCCCCGCTATATAT
B4: ZmNRT3.1A promoter probe (dsDNA)
DNA 1: CACCAGCACCGGCGCCGCCATTCGCCCCCTG
DNA 2: CAGGGGGCGAATGGCGGCGCCGGTGCTGGTG
B5: ZmNRT2.5 promoter probe (dsDNA)
DNA 1: GCCGCGCCCGCTGCCGCCTCCCAGCTCGCT
DNA 2: AGCGAGCTGGGAGGCGGCAGCGGGCGCGGC
B6: ZmNRT1.2 promoter probe (dsDNA)
DNA 1: CCACCGCACTGTCGCCGCCGTGCAGGCTCCA
DNA 2: TGGAGCCTGCACGGCGGCGACAGTGCGGTGG
B7: ZmNRT2.1 promoter probe (dsDNA)
DNA 1: CCAGCAGCAGCAGCCGACTAAACGGCATAGA
DNA 2: TCTATGCCGTTTAGTCGGCTGCTGCTGCTGG

Biological target: T1, ZmEREB97 (Zea mays (B73_v3 gene model; cDNA …, UniProt C4J4G2 1-222)
Test: EMSA; EMSA/Gel Shift Binding Buffer (Beyotime; composition, salt and pH not stated), 25 C, 20 min, about 80 ng protein, 2.5 ng probe
Conditions: protein: recombinant; tags: 6xHis (pCold); label: 5'-biotin

T1 sequence (C4J4G2 entry or part of it): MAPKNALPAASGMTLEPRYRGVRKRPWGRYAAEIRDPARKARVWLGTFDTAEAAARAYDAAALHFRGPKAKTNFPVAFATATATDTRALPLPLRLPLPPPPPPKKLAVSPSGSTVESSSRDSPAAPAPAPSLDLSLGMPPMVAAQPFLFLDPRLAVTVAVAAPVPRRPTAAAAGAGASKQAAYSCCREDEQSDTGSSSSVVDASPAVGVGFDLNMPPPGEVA

Binding result, binds:
B1

Biological target: T1, ZmEREB97
Test: EMSA; partially competed by 50-fold cold probe; EMSA/Gel Shift Binding Buffer (Beyotime; composition, salt and pH not stated), 25 C, 20 min, about 80 ng protein, 2.5 ng probe
Conditions: protein: recombinant; tags: 6xHis (pCold); label: 5'-biotin

Binding result, binds:
B2
B3
B4
B5
B6
B7
